Numbering of substitutions follows the chain as printed. Numbers in names are those of the source.

The source of these data is patent US20220064329A1 (Novo Nordisk, published 2022).

T1: recombinant human activated Factor VII (FVIIa) (human, UniProt P08709 61-212; P08709 213-466, ten glutamate residues of the Gla domain may be gamma-carboxylated)
T1 construct: chains tethered by a disulfide bond; also called Factor VIIa; rFVIIa
T1 sequence 1: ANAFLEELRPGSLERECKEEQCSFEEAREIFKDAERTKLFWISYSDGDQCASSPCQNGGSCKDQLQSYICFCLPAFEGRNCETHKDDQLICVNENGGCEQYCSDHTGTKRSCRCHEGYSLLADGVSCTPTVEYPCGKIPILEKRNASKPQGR
T1 sequence 2: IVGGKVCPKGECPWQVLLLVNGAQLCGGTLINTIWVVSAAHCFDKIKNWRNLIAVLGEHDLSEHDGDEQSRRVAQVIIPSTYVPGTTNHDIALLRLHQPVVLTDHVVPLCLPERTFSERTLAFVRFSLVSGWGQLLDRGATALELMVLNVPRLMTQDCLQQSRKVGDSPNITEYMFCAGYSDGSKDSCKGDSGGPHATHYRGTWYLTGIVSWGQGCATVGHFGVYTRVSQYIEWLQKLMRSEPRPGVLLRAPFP

B1: VH SEQ ID NO 522 / VL SEQ ID NO 334 (antibody, IgG4, V domains shown)
VH: QVQLQESGPGLVEPSQTLSLTCTVSGYSISSDSAWSWIRQPPGKGLEWIGYIQYSGSTNYNPSLKSRVTISRDTSKNQFSLKLSSVTAADTAVYYCARSVNYYGNSFAVGPWGQGTLVTVSS
VL: EIVLTQSPATLSLSPGERATLSCRASQGISDYLHWYQQKPGQAPRLLIKYASQPATGIPARFSGSGSGTDFTLTISSLEPEDFAVYYCQNGHSFPLTFGQGTKLEIK
notes: humanized 11F2; IgG4 S228P/kappa
B2: VH SEQ ID NO 522 / VL SEQ ID NO 358 (antibody, IgG4, V domains shown)
VH: B1 VH
VL: B1 VL with A51T
notes: as for B1
B3: VH SEQ ID NO 530 / VL SEQ ID NO 350 (antibody, IgG4, V domains shown)
VH: B1 VH with P111Y
VL: B1 VL with A51T, Q100A, I106L
notes: as for B1
B4: VH SEQ ID NO 522 / VL SEQ ID NO 366 (antibody, IgG4, V domains shown)
VH: B1 VH
VL: B1 VL with I29L, H34A, Q42E
notes: as for B1
B5: VH SEQ ID NO 530 / VL SEQ ID NO 326 (antibody, IgG4, V domains shown)
VH: B1 VH with P111Y
VL: B1 VL with Q42E, A51T, A84G, Q100A, I106L
notes: as for B1
B6: VH SEQ ID NO 530 / VL SEQ ID NO 318 (antibody, IgG4, V domains shown)
VH: B1 VH with P111Y
VL: B1 VL with Q42E, A51T
notes: as for B1
B7: VH SEQ ID NO 530 / VL SEQ ID NO 310 (antibody, IgG4, V domains shown)
VH: B1 VH with P111Y
VL: B1 VL with H34A
notes: as for B1
B8: VH SEQ ID NO 522 / VL SEQ ID NO 462 (antibody, IgG4, V domains shown)
VH: B1 VH
VL: B1 VL with I29V, Q100A
notes: as for B1
B9: VH SEQ ID NO 530 / VL SEQ ID NO 366 (antibody, IgG4, V domains shown)
VH: B1 VH with P111Y
VL: B1 VL with I29L, H34A, Q42E
notes: as for B1
B10: VH SEQ ID NO 530 / VL SEQ ID NO 334 (antibody, IgG4, V domains shown)
VH: B1 VH with P111Y
VL: B1 VL
notes: as for B1
B11: VH SEQ ID NO 522 / VL SEQ ID NO 454 (antibody, IgG4, V domains shown)
VH: B1 VH
VL: B1 VL with I29V, Q42E
notes: as for B1
B12: VH SEQ ID NO 522 / VL SEQ ID NO 382 (antibody, IgG4, V domains shown)
VH: B1 VH
VL: B1 VL with I29L, Q42E
notes: as for B1
B13: VH SEQ ID NO 522 / VL SEQ ID NO 494 (antibody, IgG4, V domains shown)
VH: B1 VH
VL: B1 VL with I29V, F83V
notes: as for B1
B14: VH SEQ ID NO 530 / VL SEQ ID NO 342 (antibody, IgG4, V domains shown)
VH: B1 VH with P111Y
VL: B1 VL with A51T, T69R, Q100A, I106L
notes: as for B1
B15: VH SEQ ID NO 522 / VL SEQ ID NO 430 (antibody, IgG4, V domains shown)
VH: B1 VH
VL: B1 VL with I29V, H34A, A84G
notes: as for B1
B16: VH SEQ ID NO 530 / VL SEQ ID NO 390 (antibody, IgG4, V domains shown)
VH: B1 VH with P111Y
VL: B1 VL with I29V, H34A, Q42E
notes: as for B1
B17: VH SEQ ID NO 522 / VL SEQ ID NO 470 (antibody, IgG4, V domains shown)
VH: B1 VH
VL: B1 VL with I29V
notes: as for B1
B18: VH SEQ ID NO 522 / VL SEQ ID NO 414 (antibody, IgG4, V domains shown)
VH: B1 VH
VL: B1 VL with I29V, H34A
notes: as for B1
B19: VH SEQ ID NO 522 / VL SEQ ID NO 350 (antibody, IgG4, V domains shown)
VH: B1 VH
VL: B1 VL with A51T, Q100A, I106L
notes: as for B1
B20: VH SEQ ID NO 522 / VL SEQ ID NO 446 (antibody, IgG4, V domains shown)
VH: B1 VH
VL: B1 VL with I29V, H34A, A51T
notes: as for B1
B21: VH SEQ ID NO 522 / VL SEQ ID NO 478 (antibody, IgG4, V domains shown)
VH: B1 VH
VL: B1 VL with I29V, N90Q
notes: as for B1
B22: VH SEQ ID NO 522 / VL SEQ ID NO 398 (antibody, IgG4, V domains shown)
VH: B1 VH
VL: B1 VL with I29V, H34A, Q42E, A51T
notes: as for B1
B23: VH SEQ ID NO 522 / VL SEQ ID NO 406 (antibody, IgG4, V domains shown)
VH: B1 VH
VL: B1 VL with I29V, H34A, Q100A
notes: as for B1
B24: VH SEQ ID NO 522 / VL SEQ ID NO 502 (antibody, IgG4, V domains shown)
VH: B1 VH
VL: B1 VL with I29V, A51T
notes: as for B1
B25: VH SEQ ID NO 522 / VL SEQ ID NO 486 (antibody, IgG4, V domains shown)
VH: B1 VH
VL: B1 VL with I29V, A84G
notes: as for B1
B26: VH SEQ ID NO 522 / VL SEQ ID NO 342 (antibody, IgG4, V domains shown)
VH: B1 VH
VL: B1 VL with A51T, T69R, Q100A, I106L
notes: as for B1
B27: VH SEQ ID NO 530 / VL SEQ ID NO 382 (antibody, IgG4, V domains shown)
VH: B1 VH with P111Y
VL: B1 VL with I29L, Q42E
notes: as for B1
B28: VH SEQ ID NO 522 / VL SEQ ID NO 438 (antibody, IgG4, V domains shown)
VH: B1 VH
VL: B1 VL with I29V, H34A, F83V
notes: as for B1
B29: VH SEQ ID NO 522 / VL SEQ ID NO 390 (antibody, IgG4, V domains shown)
VH: B1 VH
VL: B1 VL with I29V, H34A, Q42E
notes: as for B1
B30: VH SEQ ID NO 522 / VL SEQ ID NO 422 (antibody, IgG4, V domains shown)
VH: B1 VH
VL: B1 VL with I29V, H34A, N90Q
notes: as for B1
B31: VH SEQ ID NO 530 / VL SEQ ID NO 358 (antibody, IgG4, V domains shown)
VH: B1 VH with P111Y
VL: B1 VL with A51T
notes: as for B1
B32: VH SEQ ID NO 530 / VL SEQ ID NO 374 (antibody, IgG4, V domains shown)
VH: B1 VH with P111Y
VL: B1 VL with I29L, H34A, A51T
notes: as for B1
B33: VH SEQ ID NO 522 / VL SEQ ID NO 374 (antibody, IgG4, V domains shown)
VH: B1 VH
VL: B1 VL with I29L, H34A, A51T
notes: as for B1

In the test the target is T1, recombinant human activated Factor VII …. The test can be described thus: BLI (Fortebio). As for the experimental part:
All steps were performed in running buffer (20 mM HEPES buffer (pH 7.4), 150 mM NaCl, 5 mM CaCl2, 0.03% Tween 20, 1 mg/ml IgG-free BSA) at […] Antibodies were captured on anti-human tips (AHC, Fortebio) for 3 min at a concentration of 10 ug/ml. This was followed by a 3 min incubation to establish a baseline. Following this, association was monitored for 3 min using four different concentrations of VIIa (25 nm, 50 nM, 100 nM, and 200 nM), followed by a 3 mi dissociation. Sensorgrams were analysed using Fortebio data analysis software.
A general note: Biolayer interferometry detects binding as a change in optical thickness at a sensor tip.
Usually Kd stands for the concentration at which binding is half-saturated. With B1, the Kd was 1.2 nM.

B2: the Kd turned out to be 1.3 nM.

In the case of B3, the Kd came out at 0.96 nM.

Regarding B4, the Kd amounted to 14 nM.

As for B5, the Kd was 1.1 nM.

As to B6, the Kd amounted to 1.2 nM.

In the case of B7, the dissociation constant Kd is 2.5 nM.

Consider B8, for which the dissociation constant Kd was found to be 1.2 nM.

Turning to B9, the Kd is 3.2 nM.

With B10, the equilibrium dissociation constant (Kd) is 1.2 nM.

In the case of B11, the Kd was determined as 1 nM.

Take B12: the Kd was 1.3 nM.

On to B13, for which the dissociation constant (Kd) was 1.7 nM.

In the case of B14, the Kd was found to be 1.2 nM.

Consider B15, for which the Kd turned out to be 12 nM.

As for B16, the Kd came out at 4.1 nM.

B17: the Kd was found to be 0.96 nM.

With B18, the Kd was 31 nM.

B19: the Kd came out at 1.3 nM.

On to B20, for which the Kd was determined as 170 nM.

In the case of B21, the Kd was 1.6 nM.

Turning to B22, the Kd is 320 nM.

As for B23, the Kd is 17 nM.

B24: the equilibrium dissociation constant (Kd) is 1.4 nM.

B25: the dissociation constant Kd was 1.5 nM.

For B26, the Kd is 1.4 nM.

As for B27, the Kd came out at 1.1 nM.

B28: the Kd came to 57 nM.

Turning to B29, the Kd was determined as 15 nM.

In the case of B30, the Kd stood at 110 nM.

For B31, the Kd was found to be 1 nM.

For B32, the Kd is 4.2 nM.

Consider B33, for which the Kd stood at 14 nM.
